Source: the RNAGym collection of RNA variant scans (doi:10.7554/elife.90254)

B1: OR4K15 (parent)
chain: GUUAACGGUCAUAGGCCAUGGAAACUAGGAGCACCAUUUCGCUGCCAGUGAAGAAAUGAACAAAGAAAAUCUGGGCCAGGCAGGCAUCAAAAGAAAUAGUCUUGCGCUCAACCAGAAAGUCUGUAAUCAUUUUAAGGGUA

Variants of: B1
Experiment: self-cleavage, relative activity (ratio to wild type); higher = more cleavage; in vitro, sequencing; the parent is a self-cleaving ribozyme

Variant	self-cleavage
GUUAACGGUCAUAGGCCAUGGAAACUAGGAGCACCAUUUCGCUGCCAGUGAAGAGAUGAACAAAGAAAUUCUGGGCCAGGCAGGCAUCAAAAGAAAUAGUCUUGCGCUCAACCAGAAAGUCUGUAAUCAUUUUAAGGGUA [A55G A69U]	0.23
GUUAACGGUCAUAGGCCAUGGAAACUAGGAGCACCAUUUCGCUGCCAGUGAAGAAAUGUACAAAGAAAAUCUGGGCCAGGCUGGCAUCAAAAGAAAUAGUCUUGCGCUCAACCAGAAAGUCUGUAAUCAUUUUAAGGGUA [A59U A82U]	0.15
GUUAACGGUCAUAGGCCAUGGAAACUAGGAGCACCAUUUCGCUGCCAGUGAAGAAAUGAACAAAGAAAAUCUGGGCCAGGCAGGCAUCUAAAGAAAUAGUCUUGCGCUCAACCAGAAAGUCUGUAAUCACUUUAAGGGUA [A89U U130C]	1.2
GUUAACGGUCAUAGGCCAUGGAAACUAGGAGCACCACUUCGCUGCCAGUGAAGAAAUGAACAAAGAAAAUCUGGGCCAGGCAGGCAUCAAAAGAAAUAGUCUUGCGCUCAACCAGAAAGUCUGUAAUCAUUUUAGGGGUA [U37C A135G]	0.95
GUUAACGGUCAUAGGCCAUGGAAACUAGGAGCACCACUUCGCUGCCAGUGAAGAAAUGAACAAAGAAAAUCCGGGCCAGGCAGGCAUCAAAAGAAAUAGUCUUGCGCUCAACCAGAAAGUCUGUAAUCAUUUUAAGGGUA [U37C U72C]	0.26
GUUAACGGUCAUAGGCCAUGGAAACUAGGAGCACCAUUUCGCUGCCAGUGAAGAAAUGAACAAAGAAAAUCUGGGCCAGGCAGGCAUCAAAAGAAAUAGUCUUGCGCUCAACCAGGAAGUCUGCAAUCAUUUUAAGGGUA [A116G U124C]	0.36
GUCAACGGUCAUAGGCCAUGGAAACUAGGAGCACCAUUUCGCUGCCAGUGAAGAAAUGAACAAAGAAAAUCUGGGCCAGGCAGGCAUCAAAAGAAAUAGUCUUGCGCUCAACCAGAAAGUCUGUGAUCAUUUUAAGGGUA [U3C A125G]	0.74
GUUAACGGUCAUAGGCCAUGGAGACUAGGAGCACCAUUUCGCUGCUAGUGAAGAAAUGAACAAAGAAAAUCUGGGCCAGGCAGGCAUCAAAAGAAAUAGUCUUGCGCUCAACCAGAAAGUCUGUAAUCAUUUUAAGGGUA [A23G C46U]	1.59
GUUAACGGUCAUGGGCCAUGGAAACUAGGAGCACCAUUUCGCUGCCAGUGAAGAAAUGAACAAAGAAAAUCUGGGCCAGGCAGGCAUCAAAAGAAAUAGUCUUGCGCUCAACCAGAAAGUCUGUAAUCAUUUUAAGGGAA [A13G U139A]	1.51
GUUAACGGUCAUAGGCCAUGGAAACUAGGAGCACCAUUUCGCUGCCAGUGAAGAAAUGAACAAAGAAAAUCUGGGCCAGACAGGCAUCAAAAGAAAUAGUCUUGCGCUCAACCAGAAAGUCUGUAAUCAUUUUAGGGGUA [G80A A135G]	0.31
GUUAACGGUCAUAGGCCAUGGAAACUAGGAGCACCAUUUCGCUGCCAGUGAGGAAAUGAACAAAGAAAAUCUGGGCCAGGCAGGCAUCAAAAGAAAUAGUCUUGCGCUCAACCAGAAAGUCUGUAAUCACUUUAAGGGUA [A52G U130C]	0.75
GUUAACGGUCAUAGGCCAUGGAAACUAGGAGCACCAUUUCGCUGCCAGUGAAGAAAUGAACAAAGAGAAUCUGGGCCAGGCAGGCAUCAAAAGAAAUAGUCUUGCGCUCAACCAGAAAGUCUGUAAUCAUUUUAAGGGUC [A67G A140C]	1.47
GUUAACGGUCAUAGGCCAAGGAAACUAGGAGCACCAUUUCGCUGCCAGUGAAGUAAUGAACAAAGAAAAUCUGGGCCAGGCAGGCAUCAAAAGAAAUAGUCUUGCGCUCAACCAGAAAGUCUGUAAUCAUUUUAAGGGUA [U19A A54U]	1.8
GUUAACGGUCAUAGGCCAUGGAAACUAGGAGCACCAUUUCGCCGCCAGUGAAGAAAUGAACAAAGAAAAUCUGCGCCAGGCAGGCAUCAAAAGAAAUAGUCUUGCGCUCAACCAGAAAGUCUGUAAUCAUUUUAAGGGUA [U43C G74C]	0.23
GUUAACGGUCAUAGGCCAUGGAGACUAGGAGCACCAUUUCGCUGCCAGUGAAGAAAUGAACAAAGAAAAUCUGGGCCAGGCAGGCAUCAAAAGAAAUAGUCUUGCGCACAACCAGAAAGUCUGUAAUCAUUUUAAGGGUA [A23G U108A]	0.02
GUUAACGGUCAUAGGCCAUGGAAACUAGGAGCACCAUUUCGCUGCCAGUGAAGAAAUGAACAAAGAAAAUCUGGGCCAGGCAGGCAUCAAAAGAAAUAGUCUUGCGCUCAACCAGAAAGUCUGAAAUCAUUUGAAGGGUA [U124A U133G]	0.43
GUUAACGGUCAUAGGCCAUGGAAACUAGGAGCACCAUUUCGCUGCCAGUGAAGAAAUGAACAAAGAAAUUCUGGGCCAGGCAGGCAGCAAAAGAAAUAGUCUUGCGCUCAACCAGAAAGUCUGUAAUCAUUUUAAGGGUA [A69U U87G]	0.74
GUUAACGGUCAUAGGCCAUGGAAACUAGGAGCACCAUUUCGCUGCCGGUGAAGAAAUGAACAAAGAAAAUCUGGGCCAGGCAGGCAUCAAAAGAAAUAGUCUUGCGCUCAACCAGAAAGUCUGUAAUCAUCUUAAGGGUA [A47G U131C]	0.71
GUUAAAGGUCAUAGGCCAUGGAAACUAGGAGCACCAUUUCGCUGCCAGUGAAGAAAUGAACAAAGAAGAUCUGGGCCAGGCAGGCAUCAAAAGAAAUAGUCUUGCGCUCAACCAGAAAGUCUGUAAUCAUUUUAAGGGUA [C6A A68G]	1.14
GUUAACGGUCAUAGGCCAUGGAAACUAGGAGCACCAUUUCGCUGCCAGUGAAGAAAUGAACAAAGAAAAUCUGGGCCAGGCAGGCAUCAAAAGAUAUAGUCUUGCGCUCAACCAGAAUGUCUGUAAUCAUUUUAAGGGUA [A95U A118U]	0.6
GUUAACGGUCAUAGGCCAUGGAAACUAGGAGCGCCAUUUCGCUGCCAGUGAAGAAACGAACAAAGAAAAUCUGGGCCAGGCAGGCAUCAAAAGAAAUAGUCUUGCGCUCAACCAGAAAGUCUGUAAUCAUUUUAAGGGUA [A33G U57C]	0.64

Variant	self-cleavage
GUUAACGGUCAUAGGCCAUGGAAACUAGGGGCACCAUUUCGCUGCCAGUGAAGAAAUGAACAUAGAAAAUCUGGGCCAGGCAGGCAUCAAAAGAAAUAGUCUUGCGCUCAACCAGAAAGUCUGUAAUCAUUUUAAGGGUA [A30G A63U]	1.17
GUUAACGGACAUAGCCCAUGGAAACUAGGAGCACCAUUUCGCUGCCAGUGAAGAAAUGAACAAAGAAAAUCUGGGCCAGGCAGGCAUCAAAAGAAAUAGUCUUGCGCUCAACCAGAAAGUCUGUAAUCAUUUUAAGGGUA [U9A G15C]	0.57
GUUAACGGUCAUAGGCCAUGGAAACUAGGAGCACCAUUUCGCUGCCAGUGAAGAAAUGAACAAAGAAAAUCUGGGCCAGGCAGGCAUCAAAAGAUAUAGUCUAGCGCUCAACCAGAAAGUCUGUAAUCAUUUUAAGGGUA [A95U U103A]	0.6
GUUAACGGUCAUAGGCCAUGGAAACUAGGAGCACCAUUUCGCUGCCAGUGAAGAAAUGAACAAAGGAAAUCUGGGCCAGGCAGGCAUCAAAAGAAAUAGUCUUGCGCUCAACCAGAAAGUCUGUAAUCAUUUUAUGGGUA [A66G A135U]	1.08
GUUAACGGUCAUAGGCCAUGGAAACUAGGAGCACCAUUUCGCUGCCAGUGAAGAAAUGAACAAAGAAAAUCUGGGCCAGGCGGGCAUCAAAAGAAGUAGUCUUGCGCUCAACCAGAAAGUCUGUAAUCAUUUUAAGGGUA [A82G A96G]	0.59
GUUAACGGUCAUAGGCCUUGGAAACUAGGAGCACCAUUUCGCUGCCAGUGAAGAAAUGAACAAAGAAAAUCUGGGCCAGGCAGGCAUCAAAAGAAAUAGUCUUGCGCUCAACCAGAAAGCCUGUAAUCAUUUUAAGGGUA [A18U U120C]	1.1
GUUAACGGCCAUAGGCCCUGGAAACUAGGAGCACCAUUUCGCUGCCAGUGAAGAAAUGAACAAAGAAAAUCUGGGCCAGGCAGGCAUCAAAAGAAAUAGUCUUGCGCUCAACCAGAAAGUCUGUAAUCAUUUUAAGGGUA [U9C A18C]	0.9
GUUAACGGUCAUAGGCCAUGGAAACUAGGAGCACCAUUUCGCUGCCAGUGAAGAAAUGAACAAAGAUAAUCUGGGCCAGGCAGGUAUCAAAAGAAAUAGUCUUGCGCUCAACCAGAAAGUCUGUAAUCAUUUUAAGGGUA [A67U C85U]	1.15
GUUAACGGUCAUAGGCCAUGGAAACUAGGAGCACCAUUUCGCUGCCAGUGAAGAAAUGAACAAAGAAAAUCUGGGCCAGGCAGGCAUCCAAAGAAAUAGUCUUGCGCUCAACCAGAAAGUCUGUAAUCACUUUAAGGGUA [A89C U130C]	1.12
GGUAACGGUCAUAGGCCAUGGAAACUAGGAGCACCAUUUCGCUGCCAGUGAAGAAAUGAACAAAGAAAAUCUGGGCCAGGCAGGCAUCAAAAGAAAUAGUCUUGCGCUCAACCAGAAAGUCUGUAAUCAUUUUAUGGGUA [U2G A135U]	1.03
GUUAACGGUCAUAGGCCAUGGAAACUAGGAGCACCAUUUCGCUGCCAGUGAAGAGAUGAACAAAGAAAAUCUGGGCCAGGCAGGCACCAAAAGAAAUAGUCUUGCGCUCAACCAGAAAGUCUGUAAUCAUUUUAAGGGUA [A55G U87C]	0.64
GUUAACGGUCAUAGGCCAUGGAAACUAGGAGCACCAUUUCGCUGCCAGUGAAGAAAUGAACAAAGAAAAUCUGGGCCAGGCAGGCAUCCAAAGAAAUAGUCUUGCGCUCGACCAGAAAGUCUGUAAUCAUUUUAAGGGUA [A89C A110G]	0.18
GUUAACGGUCAUAGGCCAUGGAAACUAGGAGCACCAUUUCGCUGCCAGUGAAGAAAUGAACAAAGAAAAUCUGGGCCAGGCAGGCAUCAAAAGAAAUAGUCUUGCGCCCAACCAGAAAGUCCGUAAUCAUUUUAAGGGUA [U108C U122C]	0.01
GUUAACGGUCAUAGGCCAUGGAAACUAGGAACACCAUUUCGCUGCCAGUGAAGAAAUGAACAAAGAAAAUCUGGGCCUGGCAGGCAUCAAAAGAAAUAGUCUUGCGCUCAACCAGAAAGUCUGUAAUCAUUUUAAGGGUA [G31A A78U]	0.43
GUUAACGGUCAUAGGCCGUGGAAACUAGGAGCACCAUUUCGCUGCCAGUGAAGAAAAGAACAAAGAAAAUCUGGGCCAGGCAGGCAUCAAAAGAAAUAGUCUUGCGCUCAACCAGAAAGUCUGUAAUCAUUUUAAGGGUA [A18G U57A]	1
GUUAACGGUCAUAGGCCAUGGAAACUAGGAGCACCAUUUCGGAGCCAGUGAAGAAAUGAACAAAGAAAAUCUGGGCCAGGCAGGCAUCAAAAGAAAUAGUCUUGCGCUCAACCAGAAAGUCUGUAAUCAUUUUAAGGGUA [C42G U43A]	1.91
GUUAACGGUCAUAGGCCAUGGAAACUAGGAGCACCAUUUCGCUGCCAGUGAAGAAAUGAACAAUGAAAAUCUGGGCCAGGCAGGCAUCAAAAGAAAUAGUCUUGCGCUCAACCAGAAAGGCUGUAAUCAUUUUAAGGGUA [A64U U120G]	1.63
GUUAACGGUCAUAGGCCAUGGAAACUAGGAGCACCAUUUCGCUGCCAGUGAAGAAAUGAACAAAGAAAAUCUGGGCCAGGCAGGCAUCAAAAGAAAUAGUCUUGCGCUCAACCAGGAAGUCUGUAAUCAUUCUAAGGGUA [A116G U132C]	0.54
GUUAACGGUCAUAGGCCAUGGAAACUAGGAGCACCGUUUCGCUGCCAGUGAAGAAAUGAACAAAGAAAAUCUGGGCCAGGCAGGCAUCAAAAGAAAUAGUCUUGCGCUCCACCAGAAAGUCUGUAAUCAUUUUAAGGGUA [A36G A110C]	0.39
GUUAACGAUCAUAGGCCAUGGAAACUAGGAGCACCAUUUCGCUGCCAGUGAAGAAAUGAACAAAGAAAAUCUGGGCCAGGCAGGCAUCAAAAGAAAUAGUCUUGCGCUCAACCAGAGAGUCUGUAAUCAUUUUAAGGGUA [G8A A117G]	2.27
